Test results taken from the nanobody polyreactivity screen of Harvey et al. (2022).

assay: yeast display, Sf9 membrane polyspecificity reagent, FACS + sequencing; frameworks hold sequencing errors
Procedure, shortened: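 Using colony PCR, genes from sorted yeast display clones were amplified, then sequenced on MiSeq at 2 × 250 and filtered by CDR length. The clones had been stained with 10% biotinylated, detergent-solubilized Sf9 membrane reagent for 1 hour at 4 °C and sorted by FACS into low and high (top ~1%) gates on anti-HA and streptavidin fluorescence. Polyreactivity labels come from the gate of origin.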

Row | Sequence | polyreactivity (PSR sort gate)
1 | QVQLVESGGGLVQAGGSLRLSCAASGRIFRGYVMGWYRQAPGKERELVAAISSSGGSTYYADSVKGRFTISRDNAKNTVYLQMNSLKPEDTAVYYCAAAKWFFYGRKYGKYDYWGQGTQVTVSS | high polyreactivity
2 | QVQLVESGGGLVQAGGSLRLSCAASGRIFRGYVMGWYRQAPGKERELVARITKSGGRTYYADSVKGRFTISRDNAKNTVYLQMNSLKPEDTAVYYCNTAWTGYPRYQYGGNYWGQGTQVTVSS | high polyreactivity
3 | QVQLVESGGGLVQAGGSLRLSCAASGRIFRHNAMGWYRQAPGKERELVAAISGGGTTYYADSVKGRFTISRDNAKNTVYLQMNSVKPEDTAVYYCAARRRGSVGVGYAYPYNYWGQGTQVTVSS | high polyreactivity
4 | QVQLVESGGGLVQAGGSLRLSCAASGRIFRHYAMGWYRQAPGKERELFAAIDWDGDTTYYADSVKGRFTISRDNAKNTVYLQMNSLKPEDNAVSYCAAEFYSLGKAIYEYWGQGTQVTVSS | high polyreactivity
5 | QVQLVESGGGLVQAGGSLRLSCAASGRIFRHYAMGWYRQAPWKERELVATITSGGRTNYADSVKGRFTISRDNAKNTVYLQMNSLKPEDTAVYYGAVDTWGSSWYDLFRETSDYWGQGTQVTVSS | low polyreactivity
6 | QVQLVESGGGLVQAGGSLRLSCAASGRIFRINAMGWYRQAPGKERELVASISRRGGNTYYADSVKGRFTISRDNAKNTVYLQMNSLKPEDTAVYYCAADTYQERTFDYWGQGTQVTVSS | low polyreactivity
7 | QVQLVESGGGLVQAGGSLRLSCAASGRIFRIYTMGWYREAPGKERELVAAISKSGGGTYYADSVKGRFTISRDNAKNTVYLQMNSLKPEDTAVYYCAAVSPNTAYDYWGQGTQVTVSS | high polyreactivity
8 | QVQLVESGGGLVQAGGSLRLSCAASGRIFRLYAMGWYRQAPGKERELVAAIRSATRTTYADSVKGRFTISRDNAKNTVYLQMNSLKPEDTAFYYCAARLWRYSDVSKYYSWGQGTQVTVSS | high polyreactivity
9 | QVQLVESGGGLVQAGGSLRLSCAASGRIFRLYTMGWYRQAPGKERELVAAISSAGSTKYADSVKGRFTISRDNAKNTVYLQMNSLKPEDTAVYYCAAGRYYYRSGFYTPVRYYSWGQGTQVTVSS | high polyreactivity
10 | QVQLVESGGGLVQAGGSLRLSCAASGRIFRNYAMGWYRQAPGKERELVAAISVSGGRTYYADSVKGRFTISRDNAKNTVYLQMNSLKPEDTAVYYCAARTGRQGYSRGYNSWGQGTQVTVSS | high polyreactivity
11 | QVQLVESGGGLVQAGGSLRLSCAASGRIFRNYAMGWYRQATGKERELVAAISTRSGSTYYADSVKGRSTISRDNAKNTVYLQMNSLKPEDTAVYYCNKVSVGRYYALYYWGQGTQVTVAS | high polyreactivity
12 | QVQLVESGGGLVQAGGSLRLSCAASGRIFRPNAMGWYRQAPGKEREFVAAITSSSGTTYYADSVKGRFTISRDNAKNTVYLQMNSLKPEDTAVYYCAAAQRSVRLKFGYWGQGTQVTVSS | high polyreactivity
13 | QVQLVESGGGLVQAGGSLRLSCAASGRIFRPNAMGWYRQAPGKERELVAAISYSGATTYYADSVKGRFTISRDNAKNTVYLQMNSLKPEDTAVYYCAADTPDAPDYSGFYYWGQGTKVTVSS | low polyreactivity
14 | QVQLVESGGGLVQAGGSLRLSCAASGRIFRPNAMGWYRQAPGKERELVATITSDGSTKYADSVKGRFTISRDNAKNTVYLQMNSLKPEDTAVYYCAVRWARRYRYYYWGQGTQVTVSS | high polyreactivity
15 | QVQLVESGGGLVQAGGSLRLSCAASGRIFRPYAMGWYRQAPGKERELVAGITSSGGSTYYADSVKGRFTISRDNAKNTVYLQMNSLKPEDTAVYYCAADYGWGSGFEYDYWGQGTQVTVSS | low polyreactivity
16 | QVQLVESGGGLVQAGGSLRLSCAASGRIFRRNAIGWYRQAPGKERELEAAISSGCGSKYYADSVKGRFTISRDNAKNTVYLQMNSLKPEDTAVYYCNTVFYYDDVSQAHDYWGQGTQVTVSS | high polyreactivity
17 | QVQLVESGGGLVQAGGSLRLSCAASGRIFRRNTKGWYRQAPGKERELVAAITSAGGSTYADSVKGRFTISRDNAKNTVYFQMNSLKPEDTAVYYCATYVAYHRGYRTYDHWAQGTQVTVSS | low polyreactivity
18 | QVQLVESGGGLVQAGGSLRLSCAASGRIFRRYAMGWYRQAPGKERELVAAISSGGSTNYADSVKGRFTLSRDNAKNTVYLQMNSLKPEDTAVYYCAARRTATTSRAYYYWGQGTQVTVSS | high polyreactivity
19 | QVQLVESGGGLVQAGGSLRLSCAASGRIFRRYAMGWYRQAPGKERELVAAITSGGSTYADSVKGRFTISRDNAKNTVYLQMNSLKPEDTAVYYCAADDAQGFDYWGQGTQVTVSS | high polyreactivity
20 | QVQLVESGGGLVQAGGSLRLSCAASGRIFRRYAMGWYRQAPGKERELVAALTRSGGSTYYADSVKGRFTISRDNAKNTVYLQMNSLKPEDTAVYYCYAPSSLGTDYDYWGQGTQVTVSS | high polyreactivity

Row | Sequence | polyreactivity (PSR sort gate)
21 | QVQLVESGGGLVQAGGSLRLSCAASGRIFRSNAMGWYRQAPGKERELVAAISGSGSTTNYADSVKGRFTISRDNAKNTVYLQMNSLKPEDTAVYYCATGKRGVSGRGFRYDYWGQGTQVTVSS | high polyreactivity
22 | QVQLVESGGGLVQAGGSLRLSCAASGRIFRSNVMGWYRQAPGKERELVAAITGRGSSTYYADSVKGRFTISRDNAKNTVYLQMNSLKPEDTAVYYCAKASRYWSLYYWGQGTQVTVSS | high polyreactivity
23 | QVQLVESGGGLVQAGGSLRLSCAASGRIFRSYALGWYRQAPGKERELVAAISSSDGSTYYADSVKGRFTISRDNAKNTVYLQMNSLKPEDTAVYYCNAEQVCYTYGRYPEWYLYGYWGQGTQVTVSS | low polyreactivity
24 | QVQLVESGGGLVQAGGSLRLSCAASGRIFRSYAMGWYRQAPGKERELVAAISGSGGSTYYADSVKGRFTISRDNAKNTVYLQMNSLKPEDTAVYYCNRARGASYHGQSDYWGQGTQVTVSS | high polyreactivity
25 | QVQLVESGGGLVQAGGSLRLSCAASGRIFRSYAMGWYRQAPGKERELVAAISSGVITYYADSVKGRFTISRDNEKNTVYLQMNSLKPEDTAVYYCNARWRFLYDYWGQGTQVTVSS | high polyreactivity
26 | QVQLVESGGGLVQAGGSLRLSCAASGRIFRVNAMGWYRQAPGKERELVAAISRRGGRTYYADSVKGRFTISRDNAKNTVYLQMNSMKPEDTAVYYCNADSVTSAGSLGRAEYGYWVQGTQVTVSS | high polyreactivity
27 | QVQLVESGGGLVQAGGSLRLSCAASGRIFRVNAMGWYRQAPGKERELVARIDSGGRTNYADSVKGRFTISRDNAKNTVYLQMTSLKPEDTAVYYCARVFSLARSWYRYYYWGQGTQVTVSS | high polyreactivity
28 | QVQLVESGGGLVQAGGSLRLSCAASGRIFRVYALGWSRQAPGKERELVAAITSGGSTYYADSVKGRFTISRDNAKNTVYLQMNSLKPEDSAVYYCAAKRFRYRPGDYWGQGTQVTVSS | high polyreactivity
29 | QVQLVESGGGLVQAGGSLRLSCAASGRIFRVYAMGWSRQAPGKERELVASITRTGGGTYYADSVKGRFTNSRDNAKNTVYLQMNRLKPEDPAVYYCAADAFIPGYQLHYHWGQGTQVTVSS | low polyreactivity
30 | QVQLVESGGGLVQAGGSLRLSCAASGRIFRVYAMGWYRPAPGKERELVATIRRGSSTYYADSVKGRFTISRDNAKNTVYLQMNSLKPEDTAVYYCADRSSRRGPISEGDYWGQGTQVTVSS | high polyreactivity
31 | QVQLVESGGGLVQAGGSLRLSCAASGRIFRVYAMGWYRQAPGKERELVAAISSSGGSTYYADSVKGRFTISRDNAKNTVYLQMNSLKPEDTAVYYCAAGGLHTIQRPGYYYWGLGTQVTVSS | low polyreactivity
32 | QVQLVESGGGLVQAGGSLRLSCAASGRIFRVYAMGWYRQAPGKERELVAAISWSGGRTYYADSVKGRFTISRDNAKNTVYLQMNSLKPEDTAVYYCAAERGGPTYYSGGDYDYWGQGTQVTVSS | high polyreactivity
33 | QVQLVESGGGLVQAGGSLRLSCAASGRIFRWYAMGWYRQAPGKERELVATISSSGRTNYADSVKGRFTISRDNAKNTVYLQMNSLKPEDTAVYYCNADGGDWFGYVGMDYWGQGTQVTVSS | high polyreactivity
34 | QVQLVESGGGLVQAGGSLRLSCAASGRIFRWYAMGWYRQAPGKERELVATISSTGGSTYYADSVKGRFTISRDNAKNTDYLQMNSLKPEDTAVYDCNAVVYGIFLYAWYDYWGQGTQVTVSS | low polyreactivity
35 | QVQLVESGGGLVQAGGSLRLSCAASGRIFRYNALGWYRQAPGKERELVAAITWNGASTFYADSVKGRFTISRDNAKNTVYLQMNSLKPEDTAVYYCATVRDISGYLYWSYNLYDYWGQGTQVTVSS | high polyreactivity
36 | QVQLVESGGGLVQAGGSLRLSCAASGRIFRYNAMGWYRPAPGKERELVAAIRFSGGSTYYADSVKGRFTISRDHAKNTVYLQMNSLKPEDTAVYDCAKVYFRVQSGMDYWGQGTQVTVSS | low polyreactivity
37 | QVQLVESGGGLVQAGGSLRLSCAASGRIFRYNAMGWYRQAPGKERELVAAISYRTGSTHYADSVKGRFTISRDNAKNTVYLQMNILKPEDTAVYYCAYVPGYCYWGQGTQVTVSS | low polyreactivity
38 | QVQLVESGGGLVQAGGSLRLSCAASGRIFRYNAMGWYRQAPGKERELVATISWSGGRTYYADSVKGRFTISRDNAKNTVYLQMNSLKPEDNAVYYCAAYSYRGFGEYDYWGQGTQVTVSS | high polyreactivity
39 | QVQLVESGGGLVQAGGSLRLSCAASGRIFRYYAMGGYRQAPGKERELVATISRSGGSTFYAYSVKGRFTISRDNAKNTVYLQMNSLKPEDTAVYYCNARYQTGGYGYWGQGTQVTVSS | high polyreactivity
40 | QVQLVESGGGLVQAGGSLRLSCAASGRIFRYYAMGWYRQAPGKERELVAAISGGGGTYYADSVKGRFTISRDNATNTVYLQMNSLKPEDTAVYYCNAETYDYWFGYDYWGQGTQVTVSS | high polyreactivity
